Reference: PMC3898768, “The TBC/RabGAP Armus Coordinates Rac1 and Rab7 Functions during Autophagy” (Developmental Cell, 2013)

B1: GST-Armus 1-550 wild-type (domain or fragment)
chain: MEGAGENAPESSSSAPGSEESARDPQVPPPEEESGDCARSLEAVPKKLCGYLSKFGGKGPIRGWKSRWFFYDERKCQLYYSRTAQDANPLDSIDLSSAVFDCKADAEEGIFEIKTPSRVITLKAATKQAMLYWLQQLQMKRWEFHNSPPAPPATPDAALAGNGPVLHLELGQEEAELEEFLCPVKTPPGLVGVAAALQPFPALQNISLKHLGTEIQNTMHNIRGNKQAQGTGHEPPGEDSPQSGEPQREEQPLASDASTPGREPEDSPKPAPKPSLTISFAQKAKRQNNTFPFFSEGITRNRTAQEKVAALEQQVLMLTKELKSQKELVKILHKALEAAQQEKRASSAYLAAAEDKDRLELVRHKVRQIAELGRRVEALEQERESLAHTASLREQQVQELQQHVQLLMDKNHAKQQVICKLSEKVTQDFTHPPDQSPLRPDAANRDFLSQQGKIEHLKDDMEAYRTQNCFLNSEIHQVTKIWRKVAEKEKALLTKCAYLQARNCQVESKYLAGLRRLQEALGDEASECSELLRQLVQEALQWEAGEASSD
notes: Armus (TBC1D2A, isoform 1; UniProt Q9BYX2-1), residues 1-550; also called GST-Armus_(1–550) wild-type (WT); source: 'purified proteins'
B2: GST-Armus 1-550 W142A,Y510A (domain or fragment)
chain: MEGAGENAPESSSSAPGSEESARDPQVPPPEEESGDCARSLEAVPKKLCGYLSKFGGKGPIRGWKSRWFFYDERKCQLYYSRTAQDANPLDSIDLSSAVFDCKADAEEGIFEIKTPSRVITLKAATKQAMLYWLQQLQMKRAEFHNSPPAPPATPDAALAGNGPVLHLELGQEEAELEEFLCPVKTPPGLVGVAAALQPFPALQNISLKHLGTEIQNTMHNIRGNKQAQGTGHEPPGEDSPQSGEPQREEQPLASDASTPGREPEDSPKPAPKPSLTISFAQKAKRQNNTFPFFSEGITRNRTAQEKVAALEQQVLMLTKELKSQKELVKILHKALEAAQQEKRASSAYLAAAEDKDRLELVRHKVRQIAELGRRVEALEQERESLAHTASLREQQVQELQQHVQLLMDKNHAKQQVICKLSEKVTQDFTHPPDQSPLRPDAANRDFLSQQGKIEHLKDDMEAYRTQNCFLNSEIHQVTKIWRKVAEKEKALLTKCAYLQARNCQVESKALAGLRRLQEALGDEASECSELLRQLVQEALQWEAGEASSD
notes: Armus (TBC1D2A, isoform 1; UniProt Q9BYX2-1), residues 1-550, double point mutant; also called Armus^W142A,Y510A; source: 'purified proteins'

What was measured:
[1] = target: T1, cleaved active Rac1 (Rac^Q61L) (UniProt P63000 1-192, Q61L); assay: pull-down; purified proteins: GST-Armus 1-550 incubated with cleaved Rac Q61L with or without increasing amounts of MBP-LC3 (molar ratios shown in the figure); probed for Rac1 or LC3; conditions: both partners purified
[2] = target: T1, cleaved active Rac1 (Rac^Q61L); assay: pull-down; purified proteins: GST fusion protein (GST-LC3, or GST-Armus 1-550 wild-type or mutants) incubated with cleaved Rac Q61L; probed for Rac1; conditions: both partners purified

Binder	binding result [1]	binding result [2]
B1	binds	
B2		binds
